# Article PMC6538167
# Molecular target: Sodium/potassium-transporting ATPase subunit alpha-1 (human (endogenous in frontal lobe tissue)) (UniProt P05023)
substance,measurement,value
SST14 (peptide),"total ^86Rb^+ uptake in HEK293 cells in the presence of SST14 (50 μM), compared to controls",74.4 % of control
same,"total ^86Rb^+ uptake in ReN (ReNcell VM) cells in the presence of SST14 (50 μM), compared to controls",91.5 % of control
same,"total ^86Rb^+ uptake in mouse N2a cells in the presence of SST14 (50 μM), compared to controls",53.6 % of control
